Reference: patent publication US20220177841A1, “EX VIVO METHODS FOR PRODUCING A T CELL THERAPEUTIC AND RELATED COMPOSITIONS AND METHODS” (Myst Therapeutics LLC, priority 2019, published 2022)

System: expanded human T cells from three healthy donors
Test: T cell adjuvant high throughput screen, total viable CD3+ cell count
Format: cell-based
Details: 62.5 IU/ml-1000 IU/ml; 6 days
Description: Cells were expanded from PBMC derived from Ficoll gradient separation from three healthy donor's apheresis material. […] Cells were next seeded into gas permeable 100M culture vessels and expanded for 7-14 days to achieve a large bank of T cells, and cryopreserved. […] Half of wells were additionally supplemented with 50 ng/mL OKT3, a human anti-CD3 monoclonal antibody. In total, 15 test adjuvant agents were tested for their impact on cell viability in the presence and absence of anti-CD3 activation (see Table E3). Cells were cultured for 6 days total, including a 50% medium exchange on culture day 3, and monitored for total viable CD3+ cell count.
Total viable CD3+ cell count for cells grown in the absence and presence of OKT3 stimulation are shown in FIGS. 27A-C and FIGS. 28A-C, respectively. The results shown are for the following concentrations of adjuvant: 10 μg/mL for tested antibodies (Tavolixizumab, Oxelumab, Ipilimumab, Tocilizumab, Urelumab, Pembrolizumab, Varlilumab, anti-GITR MK-1248, anto-human FasL); 25 μM for Z-VAD-FMK pan-caspase inhibitor; 250 nM for HSP inhibitor NVP-HSP990; and 1000 IU/mL for cytokine (IL-7, IL-15 or IL-21).

B1: IL-7: recombinant cytokine tested as T cell adjuvant (protein, UniProt P13232 26-177, looked up)
Interleukin-7: DCDIEGKDGKQYESVLMVSIDQLLDSMKEIGSNCLNNEFNFFKRHICDANKEGMFLFRAARKLRQFLKMNSTGDFDLHLLKVSEGTTILLNCTGQVKGRKPAALGEAQPTKSLEENKSLKEQKKLNDLCFLKRLLQEIKTCWNKILMGTKEH
Q: Which “dose response, cell number” value does the source give for B1 here?
A: cell number increased with increasing concentration
